Experimental data taken from the supplement of paper PMC9170038.

System: MS2 coat protein
Assay: apparent KD of MS2 coat protein; designed switch direction (-1 OFF switch, 1 ON switch): 1; higher = weaker reporter binding
How it was run: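 Apparent KD, taken as the median over clusters for each design, was obtained by curve-fitting normalised cluster fluorescence. Designed RNA switches had been transcribed on Illumina chips by stalled E. coli RNA polymerase and titrated with SNAP-549-labelled MS2 coat protein, doubling from 0.7 or 1.5 nM to 3 µM.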

[1] = input ligand: microRNA oligo, concentration not stated
[2] = Eterna round: R95, input ligand: FMN 200 uM
[3] = Eterna round: R95, input ligand: microRNA oligo, concentration not stated
[4] = Eterna round: R95, input ligand: none

Sequence | apparent KD of MS2 coat protein (input ligand: FMN 200 uM) [nM] | apparent KD of MS2 coat protein [1] [nM] | apparent KD of MS2 coat protein (input ligand: none) [nM] | apparent KD of MS2 coat protein [2] [nM] | apparent KD of MS2 coat protein [3] [nM] | apparent KD of MS2 coat protein [4] [nM]
UUACUCAUGUAAGGAUAUGCAGCCGUUUCGGCUGCAGAAGGUACUAUAAUACAUGAGGAUCACCCAUGUCUCUAUUAUUUGGUG [salish99_SSNG1_r04_923] (Eterna round: R96, puzzle: Same State NG 1) | 111 | 51.1 | 84.4 |  |  | 
GUGGUCAGACAUGAGGAUCACCCAUGUGGAAUAAAUAACAACUAGGAUAUGUAAUAUAGGAUAUAACAGAAGGAGUGAUUGGUG (Eterna round: R96, puzzle: Same State NG 3) |  | 111 |  |  |  | 
GUGCGGGUAAGAGGAUAUACAAAUUCUCGUUCUGAGACGAGAACAUGAGGAUCACCCAUGUCUAAGUAGAAGGUUUCAGGCACC [Eternabot solution 28] (Eterna round: R96, puzzle: Same State NG 2) | 21.3 | 18.2 | 23 |  |  | 
GCUAGAAUAAACGCCUACAUGAGGAUCACCCAUGUAUGUAGGCAGGAUAUCGUUUGCAAAGCAAACGAGAAGGGCCUUACUAGC [Mat - Same State NG 3 - JL Mod - D32] (Eterna round: R96, puzzle: Same State NG 3) | 20.2 | 22.2 | 37.1 |  |  | 
AACAAUCUAUCUGAGGAUAUCAUGAUAAUAACAUGAGGAUCACCCAUGUGCAGGAAAACUGCAUAUGAGAAGGCAGAUAGAUUGG [Mat - Same State 2 - Mod - D20] (puzzle: Same State 2) |  |  |  | 100 | 29.4 | 26.5
GGUUGUUAGUGAGGAUAUACGUACACUCUACAUGAGGAUCACCCAUGUUUUGCCCUUGAUUGUUGGUAGAAGGCACUUGGUUAU [JR_SSNG2_Sub050] (Eterna round: R96, puzzle: Same State NG 2) | 40.7 | 84.7 | 87.3 |  |  | 
GCUCGCACGAUGACCGACAUGAGGAUCACCCAUGUGUGUCGGUAGGAUAUCUAUAUUAAGGAUUUAGAGAAGGGCCGAGCGAGC [SameState NG3 #21] (Eterna round: R96, puzzle: Same State NG 3) | 57.1 | 104 | 117 |  |  | 
GCUACAUGAGGAUCACCCAUGUGUGCGUGGGAGUGAGUGGCUUAGGAUAUCUAUGACUUUAGUUGAGAGAAGGAGGAUUGCUGU [SS-NG3-LRO11] (Eterna round: R96, puzzle: Same State NG 3) | 190 | 105 | 173 |  |  | 
GUGGUGAAUUAAGGAUAUCGAGUCUAGAUGUUAAACAUGAGGAUCACCCAUGUGGGUUGCGGUGUCGAGAAGGUGGUUUACGGG [salish99_SSNG2_r04_510] (Eterna round: R96, puzzle: Same State NG 2) | 63.2 | 84 | 72.3 |  |  | 
GUAGCAUACCGAGGAUAUUCAUAUAAUAAUAACAUGAGGAUCACCCAUGUAAGGCGAAAGCCUUGGGAGAAGGCGGAAUGCUAC [Xeonanis - 20 Mod60] (Eterna round: R96, puzzle: Same State NG 2) | 11.6 | 30 | 63.6 |  |  | 
AAAGGAUGAUUAUACAUGAGGAUCACCCAUGUAAGUAAUACUAAGGAUAUGUGACUUAAUUGUUUACAGAAGGUAGGUUCAUGA [AK SSNG3-V2-1.1] (Eterna round: R96, puzzle: Same State NG 3) | 58.8 | 230 | 117 |  |  | 
CGUGAACAUGAGGAUCACCCAUGUGAAAAACAUAGAGGAUAUGUCACGUGAGUGUAAAAGACAGAAGGCUAUCGUG [Mod 3 of Round 1 starryjess' Mod pf Nando] (Eterna round: R96, puzzle: Same State 1) | 38.1 | 78.3 | 77.6 |  |  | 
UCCGCUAUCUAGAAGGAUAUGCGUAAAUAAACAUGAGGAUCACCCAUGUACCGGCGAAAGCCGGUGCAGAAGGUUUAGCUAGUGA [Xeisgexe] (puzzle: Same State 2) |  |  |  | 38.2 | 574 | 390
GGUGGGUUGCUACCGACACAUGAGGAUCACCCAUGUUUUGGGAAGGAUAUGGUACCUAUUUGGUACCAGAAGGUCCCGUUGGUG [salish99_SSNG3_r04_707] (Eterna round: R96, puzzle: Same State NG 3) | 136 | 136 | 133 |  |  | 
CGUCCGGCCUGUGCUGGCCGGAAGCUUGUACAUGAGGAUCACCCAUGUUCAUGUGCAGGCUUUUUGCUCGUCUUGUG [salish99_mir208a_009] (puzzle: Sensor for hsa-mir-208a) |  |  |  | 26.4 | 30.9 | 32.2
CCGUAAAUGGAAGGAUAUGGAGCCUUAUUGGCUCCAGAAGGUUCAAUAACAUGAGGAUCACCCAUGUCGGCGGUCAAUAGACCG [Eli NG1ss - 79] (Eterna round: R96, puzzle: Same State NG 1) | 15.3 | 33.7 | 41.7 |  |  | 

Sequence | apparent KD of MS2 coat protein (input ligand: FMN 200 uM) [nM] | apparent KD of MS2 coat protein [1] [nM] | apparent KD of MS2 coat protein (input ligand: none) [nM] | apparent KD of MS2 coat protein [2] [nM] | apparent KD of MS2 coat protein [3] [nM] | apparent KD of MS2 coat protein [4] [nM]
ACAUGAGAAGGAGGAUAUUUUGUACCUACAUGUGACAUGAGGAUCACCCAUGUGGUAAGUAUGAGAAAGAAGGCCUAGAUAUGU [Equivalence 15 - Jieux - Same State NG 2] (Eterna round: R96, puzzle: Same State NG 2) | 21.3 | 21 | 36.3 |  |  | 
GCGAGCGUACUUGCAACAUGAGGAUCACCCAUGUUAACUGGACAGGAUAUGGUACCGUUUCGGUACCAGAAGGGUUCCUCAUUG [JL SSNG3 3.63] (Eterna round: R96, puzzle: Same State NG 3) | 319 | 34.7 | 437 |  |  | 
GAGUGGCGGUUAGGAUAUACAGUGAUAAUGAUAGUAGAAGGAACUGACAUGAGGAUCACCCAUGUAGGACUAAUCCAGAGAGAG [Parity 31 - Jieux - Same State NG 1] (Eterna round: R96, puzzle: Same State NG 1) | 43.6 | 21.7 | 33.7 |  |  | 
ACAUGAGGAUCACCCAUGUAUUUAUUUGAAUCUUAAGUUACGUAGGAUAUCGUGUAUACUAUCAUCGAGAAGGACGAUGUGAUA [JR_SSNG3_Sub068] (Eterna round: R96, puzzle: Same State NG 3) |  | 12.5 |  |  |  | 
GGCCAGAGUCAAGGAUAUGCUACCGUUUCGGUAGCAGAAGGUGAUCACAUGAGGAUCACCCAUGUUUACUGCGAGAGCAUGGCC [JL SSNG1 3.68] (Eterna round: R96, puzzle: Same State NG 1) | 809 | 103 | 34.1 |  |  | 
AUUAUUUAUGCAGGAUAUGAUUAACAUGAGGAUCACCCAUGUGGUGUUGUGAGUAAGGAGAGUGAUCAGAAGGGCAUUUUGUUU [JMF's solution 51] (Eterna round: R96, puzzle: Same State NG 2) | 794 | 321 | 451 |  |  | 
AGUCCAGCCUGAGCUGGACAAAAGCAUGUACAUGAGGAUCACCCAUGUCAUGUACAAGCUUUUUGCUCGUCUUGAAA [Zipper 46 - 9] (puzzle: Sensor for hsa-mir-208a) |  |  |  | 737 | 16.8 | 807
GCUAGAAUUAAAGCCAACAUGAGGAUCACCCAUGUAUGUUGGUAGGAUAUCGUUUGCAAAGCAAACGAGAAGGGCCAAACUAGC [Mat - Same State NG 3 - JL Mod - D19] (Eterna round: R96, puzzle: Same State NG 3) | 86.6 | 104 | 99.7 |  |  | 
AGAGUGUAUCCACAGGAUAUGCGAGCUGACACAUGAGGAUCACCCAUGUAGUCCUAAAGGGCUGAGCAGAAGGGUGGUAAAGCUC [Raesvelave] (puzzle: Same State 2) |  |  |  | 12.9 | 44.2 | 53.6
UUAAUUUGUUGAGGAUAUUAUGUCAAAAGAGAAGACAUGAGGAUCACCCAUGUGAGAAAAGGUUUUAAGAAGGCAACAUUCAUA [JR_SSNG2_Sub089] (Eterna round: R96, puzzle: Same State NG 2) | 39.5 | 77.7 | 115 |  |  | 
CAGCACUAUCGAGAGGAUAUGCGGUGAUGGACAUGAGGAUCACCCAUGUUAGCGGUAGCAUCACGGCAGAAGGCUCUGCUGCUGC [Soteed Omei mod 39] (puzzle: Same State 2) |  |  |  | 20.4 | 28.8 | 37.4
UAUUUAAUCAUAGGAUAUAGUGUGAAAUUUGGACUAGAAGGAUGUAACAUGAGGAUCACCCAUGUGGUAAGUGGGACACAGUGA [JR_SSNG1_Sub096] (Eterna round: R96, puzzle: Same State NG 1) |  | 114 |  |  |  | 
UAUCCAUAGAUAGGAUAUCAGUAUACAUGAGGAUCACCCAUGUUAUAUUUGGUUUUAAGUUAGUCUGAGAAGGAUCUUGAUGAA [SameState NG2 #3] (Eterna round: R96, puzzle: Same State NG 2) | 12.4 | 11.1 | 15.6 |  |  | 
AUUAAUUAAUUAAUACAUGAGGAUCACCCAUGUAAUAAGAUCAAGGAUAUCAGCUCGUUUAGAGCUGAGAAGGUGAUCACAUGU [SSNG3/17-B3] (Eterna round: R96, puzzle: Same State NG 3) |  | 246 |  |  |  | 
CUGUGUUGCGGGCAGGAUAUGUAUUGGAGUACAUGAGGAUCACCCAUGUGCGGGUGUUUCACCCGACAGAAGGGCCAAUCGCGAC [JL-ss2-3.22 ViennaUCT mod] (puzzle: Same State 2) |  |  |  |  | 76.7 | 
